Data taken from paper PMC4254802.

Experiments:
Test in all cases: cross-linking
[1] = molecular target: TACE-B/ADAM10cyto (truncated human TACE with the cytoplasmic domain of ADAM10), Flag-tagged (human) (UniProt O14672)
[2] = molecular target: endogenous ADAM10 of Cα cells (Chinese hamster (endogenous in Cα/CHO cells))
[3] = molecular target: endogenous TACE of Cα cells (CHO cells that express TGF-α) (Chinese hamster (endogenous in Cα/CHO cells))

Substance: TACE-B/ADAM10cyto (truncated human TACE with the cytoplasmic domain of ADAM10), Flag-tagged (from UniProt O14672 694-748)
- stoichiometry N [1]: 2

Substance: endogenous ADAM10 of Cα cells (enzyme)
- stoichiometry N [2]: 2

Substance: endogenous TACE of Cα cells (CHO cells that express TGF-α) (enzyme)
- stoichiometry N [3]: 2
